From patent US20020127657A1 (Dana-Farber, published 2002) come the findings set out here.

The labels stand for the following.
B3: CD2 cytoplasmic region (CD2221-327) (receptor, human, UniProt P06729 245-351, looked up)
chain: NDEELETRAHRVATEERGRKPHQIPASTPQNPATSQHPPPPPGHRSQAPSHRPPPPGHRVQHQPQKRPPAPSGTQVHQQKGPPLPRPRVQPKPPHGAAENSLSPSSN
notes: range 221-327; Yeast two-hybrid bait expressed from vector pEG202; also called CD2 cytoplasmic tail; human CD2 cytoplasmic segment amino acids 221-327

Assay [1] concerns the target B3. The experiment in a line: yeast two-hybrid. The text has this:
(§1) The yeast hybrid system interaction trap was used as described (Finley and Brent, Interaction Trap Cloning with Yeast (Oxford Univ. Press), NY (1995)). In brief, as bait, a human CD2 cDNA encoding the cytoplasmic segment amino acids 221-327 was transferred into the pEG202 vector. cDNAs from an activated human T cell cDNA library, CD2 binding protein 2 (CD2BP2), or mutant cDNA variants of CD2BP2 were introduced into the pJG4-5 vector between EcoRI and Xho1 restriction sites. Mutations were created by a previously described method (Higuchi et al., Nucleic Acids Res. 16:7351-7367 (1988)), and were confirmed by DNA sequencing. Both of the yeast shuttle vectors were introduced into the yeast strain EGY48, were plated onto selection plates containing glucose, and were incubated at 30° C. After 48 hours greater than 100 colonies were mixed, were transferred onto a plate containing galactose/raffinose and 5-bromo-4-chloro-3-indolyl-D-galactoside, and were incubated for 48 hours at 30° C. followed by 5 days at 8° C. The strength of the interaction was scored based on the time point when the blue color appeared in comparison with a negative control: ++++, <6 hours; +++, 12 hours: ++, <24 hours; +, <48 hours; ±, <72 hours; and −, >72 hours. CD2 mutations were generated and analyzed in a similar manner.

For the next assay, the target named is T1, human CD4 (human, UniProt P01730 26-458).
T1 construct: whole, on cells; Control in the COS7 co-immunoprecipitation; tested in cell lysate
The experiment in a line: co-immunoprecipitation from cotransfected COS7 cells, anti-FLAG Western blot. On the procedure: COS7 cells were transfected with FLAG-CD2BP2 cDNA (lane 1), with FLAG-CD2BP2 and a human CD2 cDNA (lanes 2 and 3), or with FLAG-CD2BP2 and a human CD4 cDNA (lanes 4 and 5), then were lysed and immunoprecipitated with the anti-FLAG mAb M2 (lanes 3 and 5), with anti-CD2 mAb (anti-T11₁)(lanes 1 and 2), or with anti-CD4 mAb (19Thy5D7) (lane 4). Subsequently, the amount of FLAG-CD2BP2 in the immunoprecipitates was assayed by anti-FLAG mAb M2 Western blotting.
To determine whether CD2BP2 associates specifically with CD2, COS7 cells were cotransfected with FLAG-CD2BP2 and CD2 cDNA, or, as a control, CD4 cDNA. Subsequently, the CD2 protein was immunoprecipitated with anti-CD2 mAb and association with CD2BP2 examined by Western blotting with anti-FLAG mAb. […] The amount of CD2BP2 associated with CD2, however, is only a fraction of the CD2BP2 protein expressed in the COS7 cells.
As the vectors for transfection, pcDNA1.1 and pcDNA3.1 (Invitrogen) were used with COS7 and with Jurkat cells, respectively. For expression of CD2 and CD4 in COS7 cells, a pCDM8 plasmid containing each was used (Sakiharna et al, Proc. Natl. Acad. Sci. USA 92:6444-6448 (1995); Li et al., J. Mol. Biol. 263:209-226 (1996)). […]
Background: Immunoblotting shows a protein as a band on a membrane.

The target in another assay is T2, CD2BP2129-287 (human, UniProt O95400 129-287).
T2 construct: Yeast two-hybrid prey; vector fusion part not described
T2 sequence: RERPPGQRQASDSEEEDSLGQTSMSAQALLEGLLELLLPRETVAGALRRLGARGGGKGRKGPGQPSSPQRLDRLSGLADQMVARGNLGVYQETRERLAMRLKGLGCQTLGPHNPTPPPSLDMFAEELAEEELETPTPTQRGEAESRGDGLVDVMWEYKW
The experiment in a line: yeast two-hybrid.
Text: as §1

For a further assay, the target named is T3, CD2BP2129-254 (human, UniProt O95400 129-254).
T3 construct: Yeast two-hybrid prey; vector fusion part not described
T3 sequence: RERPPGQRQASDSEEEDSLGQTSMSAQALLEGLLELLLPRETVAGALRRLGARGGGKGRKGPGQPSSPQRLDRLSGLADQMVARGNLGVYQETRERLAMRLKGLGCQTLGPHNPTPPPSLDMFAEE
The experiment in a line: yeast two-hybrid.
Text: as §1

For assay [2], the target named is T4, CD2BP2225-341 (yeast two-hybrid clone) (human, UniProt O95400 225-341).
T4 construct: Yeast two-hybrid prey in pJG4-5; vector fusion part not described
T4 sequence: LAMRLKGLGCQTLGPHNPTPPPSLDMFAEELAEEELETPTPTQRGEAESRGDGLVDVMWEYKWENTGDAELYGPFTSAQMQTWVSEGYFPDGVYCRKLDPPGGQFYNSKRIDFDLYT
The assay can be described thus: yeast two-hybrid.
Text: as §1

Assay [3] has as its target T5, CD2 binding protein 2 (CD2BP2) (human, UniProt O95400 1-341, limits assumed).
T5 construct: CD2BP2 as used in the yeast two-hybrid tests against CD2 derivatives (vector pJG4-5)
T5 sequence: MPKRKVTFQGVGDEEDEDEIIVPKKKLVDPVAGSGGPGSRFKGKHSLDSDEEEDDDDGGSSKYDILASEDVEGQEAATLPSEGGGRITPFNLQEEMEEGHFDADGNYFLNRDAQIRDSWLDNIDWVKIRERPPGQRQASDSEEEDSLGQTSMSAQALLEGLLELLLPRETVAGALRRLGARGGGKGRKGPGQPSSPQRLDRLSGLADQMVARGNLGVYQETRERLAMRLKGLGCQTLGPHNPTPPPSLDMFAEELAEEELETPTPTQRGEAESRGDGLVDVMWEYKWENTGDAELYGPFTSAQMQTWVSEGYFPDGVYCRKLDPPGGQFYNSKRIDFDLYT
The experiment in a line: yeast two-hybrid.
Text: as §1

B1: CD2BP2256-341Δ297-313 (other)
chain: AEEELETPTPTQRGEAESRGDGLVDVMWEYKWENTGDAELYPDGVYCRKLDPPGGQFYNSKRIDFDLYT
notes: Yeast two-hybrid prey; vector fusion part not described; also called deletion clone lacking those 17 residues
As for B1, in assay [1], the binding result was “no binding”.

B2: FLAG-CD2BP2 (other)
chain: DYKDDDDKMPKRKVTFQGVGDEEDEDEIIVPKKKLVDPVAGSGGPGSRFKGKHSLDSDEEEDDDDGGSSKYDILASEDVEGQEAATLPSEGGGRITPFNLQEEMEEGHFDADGNYFLNRDAQIRDSWLDNIDWVKIRERPPGQRQASDSEEEDSLGQTSMSAQALLEGLLELLLPRETVAGALRRLGARGGGKGRKGPGQPSSPQRLDRLSGLADQMVARGNLGVYQETRERLAMRLKGLGCQTLGPHNPTPPPSLDMFAEELAEEELETPTPTQRGEAESRGDGLVDVMWEYKWENTGDAELYGPFTSAQMQTWVSEGYFPDGVYCRKLDPPGGQFYNSKRIDFDLYT
notes: Expressed in COS7 (pcDNA1.1) and Jurkat J77 (pcDNA3.1) cells and tested from cell lysates; also called full length FLAG-CD2BP2 construct
With B2, in the assay with human CD4, the binding result is “no binding”.
Take B3: the binding result with CD2BP2129-287 is recorded as “no binding”; in the assay with CD2BP2129-254, “no binding”; in assay [2] it was “binds”.

B4: CD2221-271 (receptor, human, UniProt P06729 245-295, looked up)
chain: NDEELETRAHRVATEERGRKPHQIPASTPQNPATSQHPPPPPGHRSQAPSH
notes: range 221-271; CD2 cytoplasmic tail truncation mutant for yeast two-hybrid analysis; vector fusion part not described
For B4, the binding result in assay [3] was “no binding”.

B5: CD2BP2256-341 (yeast two-hybrid clone) (other)
chain: AEEELETPTPTQRGEAESRGDGLVDVMWEYKWENTGDAELYGPFTSAQMQTWVSEGYFPDGVYCRKLDPPGGQFYNSKRIDFDLYT
notes: Yeast two-hybrid prey in pJG4-5; vector fusion part not described; also called shortest functional clone
Take B5: the binding result in assay [1] is recorded as “binds”.

B6: CD2BP2 Y312A (other)
chain: AEEELETPTPTQRGEAESRGDGLVDVMWEYKWENTGDAELYGPFTSAQMQTWVSEGAFPDGVYCRKLDPPGGQFYNSKRIDFDLYT
notes: Yeast two-hybrid prey
As for B6, the binding result in assay [1] is “no binding”.

B7: CD2BP2 W307A (other)
chain: AEEELETPTPTQRGEAESRGDGLVDVMWEYKWENTGDAELYGPFTSAQMQTAVSEGYFPDGVYCRKLDPPGGQFYNSKRIDFDLYT
notes: Yeast two-hybrid prey
With B7, the binding result in assay [1] is “no binding”.

B8: CD2BP2 G311A (other)
chain: AEEELETPTPTQRGEAESRGDGLVDVMWEYKWENTGDAELYGPFTSAQMQTWVSEAYFPDGVYCRKLDPPGGQFYNSKRIDFDLYT
notes: Yeast two-hybrid prey
As to B8, the binding result in assay [1] is given as “no binding”.

B9: CD2BP2 F313A (other)
chain: AEEELETPTPTQRGEAESRGDGLVDVMWEYKWENTGDAELYGPFTSAQMQTWVSEGYAPDGVYCRKLDPPGGQFYNSKRIDFDLYT
notes: Yeast two-hybrid prey
Take B9: in assay [1], the binding result was “no binding”.

B10: CD2BP2256-332 (other)
chain: AEEELETPTPTQRGEAESRGDGLVDVMWEYKWENTGDAELYGPFTSAQMQTWVSEGYFPDGVYCRKLDPPGGQFYNS
notes: Yeast two-hybrid prey; vector fusion part not described; also called nine-residue truncation
Take B10: the binding result in assay [1] is “no binding”.
